The data set can be described thus: yeast display, Sf9 membrane polyspecificity reagent, FACS + sequencing; frameworks hold sequencing errors. An outline of the steps:
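Nanobodies from a synthetic yeast display library (Saccharomyces cerevisiae BJ5465), induced 36–48 hours with galactose, were stained 1 hour at 4 °C with 10% biotinylated, detergent-solubilized Sf9 membrane reagent, enriched on streptavidin microbeads, then FACS-sorted. Anti-HA (expression) and streptavidin (reagent binding) fluorescence set low and high (top ~1%) gates. Polyreactivity labels come from the gate of origin. Genes were colony-PCR amplified, MiSeq 2 × 250 sequenced and filtered by CDR length.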
As to “QVQLVESGGGLVQAGGSLRLICAASGSIFGWNAMGWYRQAPGKERELVASITWSGGRTYYADSVKGRFTISRDNAKNTVYLQMNSLKPEDTAVYYCAADYKPTSRSNKYYYWGQGTQVTVSS”, the “polyreactivity (PSR sort gate)” value was “high polyreactivity”.
In the case of “QVQLVESGGGLVQAGGSLRLICAASGSIFGYNAMVWYRQAPGKERELVAVINASGASTYYADSVKGRFTISRDNAKNTVYLHMNSLKPEDTAVYSCAKDPFPFPGGDYWGQGTQVTVSS”, the “polyreactivity (PSR sort gate)” value is reported as “low polyreactivity”.
With “QVQLVESGGGLVQAGGSLRLICAASGSIFKYYAMGLYRQAPGKERDLVAANRWSGGSTYYADSVKGRFTISRDNAKNTVYLQMNRLKPEDTAVYYCAAEYFNQNTRQGYDYWGQGTQVTVSS” the entry was “low polyreactivity”; with “QVQLVESGGGLVQAGGSLRLICAASGSIFRSYSMGWYRQAPGKERELVAGINRSGASTYYADSVKGRFTISRDNAKNTVYLQMNSMKPEDTAVSYCNARAQRGGYNYWGQGTQVTVSS”, “high polyreactivity”.
“QVQLVESGGGLVQAGGSLRLICAASGSIFTHNTMGWYRQAPGKERELVASIDSGASTNYADSVKGRFTISRDNAKNTVYLQMNSLKPEDTAVYYCAADDAKFRYRDDYWGQGTQVTVSS”: the “polyreactivity (PSR sort gate)” value was “low polyreactivity”.
With “QVQLVESGGGLVQAGGSLRLICAASGSIFTPYAMGWYRQAPGKERELVAAISTSGGSTYYADSVKGRFTISRDNAKNTVYLQMNSLKPEDTAVYYCYTVYYSQREIYYWGYDSWGQGTQVTVSS” the entry was “high polyreactivity”; with “QVQLVESGGGLVQAGGSLRLICAASGSIFVLYAMGWYRTAPGKERELVAAINYDGASTYYADSVKGRFTISRDNANNTFYLQMNSLKPKDTAVYYCAADVSYPVIYEYDYGGQGTQVTVSS”, “low polyreactivity”.
The entry for “QVQLVESGGGLVQAGGSLRLICAASGSIFYEYAMGWYRQAPGKEREFVASISWSGGITSYADSVKGRFTISRDNAKNTVYLQMNSLKPEDTAVYYCAADFSWYLYDYDYWGQGTQVTVSS” is “low polyreactivity”; for “QVQLVESGGGLVQAGGSLRLICAASGSIFYRNAMGWYRQAPGKERELVAVITDGGTTSYADSVKGRFTISRDNAKNTVYLQMNSLKPEDTAVYYCAADRQPVYPSLGVYWDYGHDYWGQGTQVTVSS” it is “low polyreactivity”; for “QVQLVESGGGLVQAGGSLRLICAASGSIIGANAMGWSRQAPGKERELGAAITDNTSTTFYADSVKGRFTISRDIAKNTVYLQMNSLKPEDTAVYYCNADRAVVLSTPLWGEYDYWGQGTQVTVSS” it is “low polyreactivity”.
The entry for “QVQLVESGGGLVQAGGSLRLICAASGSILYRYAMGWYRQAPGKERELVASISWSDGSTYYADSVKGRFTISRDNAKNTLYLQMNSLKPEDTAVYYCAAKGWGSDSYYAYGYDYWGQGTQVTVSS” is “low polyreactivity”.
For the sequence “QVQLVESGGGLVQAGGSLRLICAASGSISTPYTMGWYRQAPGKERELVAAISWIGDTTSYADSVKGRFTISRDNAKNTVYLQMNSLKPEDTAVYYCNAEHRGYDYWGQGTQVTVSS”, the “polyreactivity (PSR sort gate)” value is given as “low polyreactivity”.
“QVQLVESGGGLVQAGGSLRLICAASGSTFAQNTMGWYRQAPGKERELVATISDGGGSTYYADSVKGRFTISRDNAKNTVYLQMNSLKPEDTSVYYCNTDRFWPSDFWGQGTQVTVSS”: the “polyreactivity (PSR sort gate)” value is listed as “low polyreactivity”.
As to “QVQLVESGGGLVQAGGSLRLICAASGSTFARYAMGWYRQAPGKERELVAVIRSGGSTNYADSVKGRFTISRDNAKNTVYLQMNSMKTEDTAGAADQWTIHRWATYGYWGQGTQVTVSS”, the “polyreactivity (PSR sort gate)” value is on record as “low polyreactivity”.
The entry for “QVQLVESGGGLVQAGGSLRLICAASGSTFAYNDMGWYRQAPGTERELVADIRSGGNTNYADSVKGRFTISRDNAKNTVYLQMNSLKPEDTAVYYCATDGYRIDVYHPDYRYDYWGQGTQVTVSS” is “low polyreactivity”.
In the case of “QVQLVESGGGLVQAGGSLRLICAASGSTFDQNVMGWYRQAPGKDRELVGTINFSGDSTYYADSVKGRFTISRDNAKNTVYLQMNSLKPEDPAVYYCAVDWGEYIDTSVKRDISYYWGQGTQVTVSS”, the “polyreactivity (PSR sort gate)” value is reported as “low polyreactivity”.
With “QVQLVESGGGLVQAGGSLRLICAASGSTFEAYAMGWYRQAPGKDSELVAAIRSSGSTSYADSVKGRFTISRDNAKNTVYLQMKSLKPEDTALYYGAARVRGYPRYKRDYWGQGTQVTVSS”, the “polyreactivity (PSR sort gate)” value was “high polyreactivity”.
Consider “QVQLVESGGGLVQAGGSLRLICAASGSTFFYYAMGWYRQAPGKERELVARISGGGSTNYADSVKGRFTISRDNAKNTVYLKMNSLNPEDTAVYYCAADRYHYYRYSYGRYGYWGQCTQVTVSS”, for which the “polyreactivity (PSR sort gate)” value is “high polyreactivity”.
The entry for “QVQLVESGGGLVQAGGSLRLICAASGSTFGANAMGWYRQAPGKEREFVAAISGSGTTTYYADSVKGRFTISRDNAKNTVYLQMNSLKPEDTPVYYCAKTRKAHWLEYWGQGTQVTVSS” is “low polyreactivity”.
As to “QVQLVESGGGLVQAGGSLRLICAASGSTFGLNTMGWYRQAPGKDRELVAGITWSGGTTYYADSVKGRFTISRDNAKNTVYLQMNSLKPEDTAVYYCAAAVCDHYWYSRAYYYWGQGTQVTLSS”, the “polyreactivity (PSR sort gate)” value is reported as “high polyreactivity”.
The entry for “QVQLVESGGGLVQAGGSLRLICAASGSTFKWYAMGWYRQAPGKERELVAAISSSGGTTYYADSVKGRFTISRDNAKNTVYLQMNSLKPEDTAVYYCAKPYLYSGYGYWGQGTQVTVSS” is “high polyreactivity”; for “QVQLVESGGGLVQAGGSLRLICAASGSTFLGYAMGWYRQAPGKERELVAAITYSAGSTYYADSVKGRFTISRDNAKNTVYLQMNSLKPEDTAVYYCAKRYSGYDHWGQGTQVTVSS” it is “low polyreactivity”.
On to “QVQLVESGGGLVQAGGSLRLICAASGSTFNGYVMGWYRKAPGKERELVAAISRSGGSTYYADSVKGRFTNSRDNAKNTVYLQMNSLKPEDTAVYDCAAAPPLAGLGGYYWGQGTQVTVSS”, for which the “polyreactivity (PSR sort gate)” value is reported as “high polyreactivity”.
For the sequence “QVQLVESGGGLVQAGGSLRLICAASGSTFNIKAMGWYRQAPGKERELVAAISSRGGSTYYADSVKGRFTISRDNAKNTVYLQMNSLKPEDTAVYYCALAAGIPQRRYYYWGQGTQVTVSS”, the “polyreactivity (PSR sort gate)” value was “high polyreactivity”.
Take “QVQLVESGGGLVQAGGSLRLICAASGSTFNYNAMGSSRQAPGKERELVAAISQTTSRTYYADSVKGRFTISRDNAKNTVYLQMNSLKPEDTAVYYCATKRWTRDRQRPRTQYYLFYYWGQGTQVTVSS”: the “polyreactivity (PSR sort gate)” value is “high polyreactivity”.
The entry for “QVQLVESGGGLVQAGGSLRLICAASGSTFNYNAMGWYRQAPGKERELVAAISSSGGSTYYADSVKGRFTISRDNAKYTVYLQMNSLKREDTAVYYCAASGGYGQYNYWGQGTQVTVSS” is “low polyreactivity”; for “QVQLVESGGGLVQAGGSLRLICAASGSTFPYYDMGWYRQAPGKETELVAAISWSGDSTYYADSVKGRFTISRDNAKNTVYLQMNSLKPEDTAVYYCAAYSDYWSYLSTDDYWGQGTQVTVSS” it is “low polyreactivity”; for “QVQLVESGGGLVQAGGSLRLICAASGSTFSYNAMGWYRQAPGKEREFVAAITSSGSSTYYADSVKGRFTISRYNAKNTVYLQMNSLKPEDTAVYYCNAEVLFVAGQVQRNSGDYWGQGTQVTVSS” it is “low polyreactivity”.
The entry for “QVQLVESGGGLVQAGGSLRLICAASGSTFTRYAMGWYRQAPGKERELVAAITSSGSRTYYADSVKGRFTISRDNAQNTVYLQMNSLKPEDTAVYYFAALGDTRYVGMDHWGQGTQVTVSS” is “high polyreactivity”; for “QVQLVESGGGLVQAGGSLRLICAASGSTFYFYAMGWYRQAPGKERELVAVISSGGSTYYADSVKGRFTISRDNAKNTVYLQMNSLKPEDTAVYYCAAYYYYTLYYRYDYWGQGTQVNVSS” it is “low polyreactivity”.
Take “QVQLVESGGGLVQAGGSLRLICAASGSTIGTNAMGWYRQAPGKERELVAAISRSGGRTYYADSVKGRFTISRDNAKNTVYLQMNSLKPEDTAVYYCAKAGLYTEYDYWGQGTQVTVSS”: the “polyreactivity (PSR sort gate)” value is “high polyreactivity”.
The entry for “QVQLVESGGGLVQAGGSLRLICAASGSTLFYNAMGWYRQAPGKERELVAAISSGVRTNYADSVKGRFTISRDNAKITVYLQMNSLKPEDTALYYCAAATYNQDYSYDYWGQGTQVTVSS” is “low polyreactivity”; for “QVQLVESGGGLVQAGGSLRLICAASGSTLNSYVMGWSRQAPGKERDMVATIRSGSSTNYADSVKGRFTISRDNAKNTVYFQMNSLIPEDTAVYSCAADAYSLCYDSWGQGTQVTVSS” it is “low polyreactivity”; for “QVQLVESGGGLVQAGGSLRLICAASGSTYRYYAMGWSRQAPGKERELVAGITGSGGSTYYADSVKGRFTISRDNAKNTVYLQMNSLNPEDTAVYDCATKLRRWRFYAAYDYWGQGTQVTVSS” it is “high polyreactivity”.
The entry for “QVQLVESGGGLVQAGGSLRLICAASGTFDHYAMGWDRQAPGKERELVAAISWSGGSTYYADSVKGRFTISRDNAKNTVYLQMNSLKPEDTAVYYCNAETDGYFESNDFDYWGQGTQVTVSS” is “high polyreactivity”; for “QVQLVESGGGLVQAGGSLRLICAASGVIFLRYAMGWYRQAPGKERELVAAISSSGDITYYADSVKGRFTISRDNAKNTVYLQMYSLKPEDTAVYYCAATVGLWEYGYWGQGTQVTVSS” it is “low polyreactivity”; for “QVQLVESGGGLVQAGGSLRLICAASGVSNAKGWYRQAPGKERELVAAISRSGGSTYYADSVKGRFTISRDNAKNTVYIQMNSLKPEDTAVYYCAAGYRTRGLYSRLDWGQGTQVTVSS” it is “high polyreactivity”.
The entry for “QVQLVESGGGLVQAGGSLRLICAASGYIFTYNAMGWYRQAPGKERELVAAISSGDGRTYYADSVKGRFTISRDNAKNTVYLQMNSLTPEDTAVYYCNATRVVYRQAYLYGYDYWGQGTQVTVSS” is “low polyreactivity”.
On to “QVQLVESGGGLVQAGGSLRLICAASGYIFVRNAMGWYRQAPGKEREFVATISRRGGTTYYADSVKGRFTISRDNAKNTVYLQMNSLKPEDTAVYYCAARNWPSRGYKYWGQGTQVTVSS”, for which the “polyreactivity (PSR sort gate)” value is “high polyreactivity”.
Turning to “QVQLVESGGGLVQAGGSLRLICAASGYTFALYAIGWYRQATGKERELVAAITDSDGSTYADSVKGRFTISRDNAKNTFYLQMNSLKQEDTAVYYCAARDPHLQGYSYLSYLTMDYWGQGTQVTVSS”, the “polyreactivity (PSR sort gate)” value is reported as “low polyreactivity”.
The entry for “QVQLVESGGGLVQAGGSLRLICAASVSIFKAYAMGWYRQAPGKEMELVARIRYRGGSTYYADSVKGRFTISRDNAKNTVYLQMNSLKPEDTAVYYCAARFSPYHTDRGDYWGQGTQVTVSS” is “high polyreactivity”.

The values are drawn from the nanobody polyreactivity screen of Harvey et al. (2022).
